PMC3044229
Like-named read-outs stand apart in the source and are kept apart here.

Experiments:
GST-ABP9 [1] = target: T1, GST-ABP9 (Zea mays, UniProt D2KNW6 1-385); assay: EMSA
T1 sequence: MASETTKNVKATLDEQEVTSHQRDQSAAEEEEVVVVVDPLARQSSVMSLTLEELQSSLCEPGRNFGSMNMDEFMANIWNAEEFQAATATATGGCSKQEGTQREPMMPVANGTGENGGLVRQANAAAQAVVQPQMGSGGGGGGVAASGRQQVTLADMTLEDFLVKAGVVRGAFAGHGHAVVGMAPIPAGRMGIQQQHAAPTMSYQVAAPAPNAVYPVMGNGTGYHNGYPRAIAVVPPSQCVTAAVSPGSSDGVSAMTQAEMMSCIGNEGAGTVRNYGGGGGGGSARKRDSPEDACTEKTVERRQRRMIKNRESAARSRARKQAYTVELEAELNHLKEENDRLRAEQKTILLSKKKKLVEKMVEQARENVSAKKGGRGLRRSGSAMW

GST-ABP9 [2] = target: T1, GST-ABP9; assay: EMSA; remark: listed apart in the source

B1: mABRE2 (dsDNA)
DNA 1: GAAGTAACATGTTCGGTGG
DNA 2: CCACCGAACATGTTACTTC
B1: no binding (GST-ABP9 [1]).

B2: ABRE2 (dsDNA)
DNA 1: GAAGTCCACGTGGAGGTGG
DNA 2: CCACCTCCACGTGGACTTC
B2: binds (GST-ABP9 [2]).
